The labels stand for the following.
B1: Signal transducing adapter molecule 1 (Homo sapiens), Q92783 (parent)
chain: MPLFATNPFDQDVEKATSEMNTAEDWGLILDICDKVGQSRTGPKDCLRSIMRRVNHKDPHVAMQALTLLGACVSNCGKIFHLEVCSRDFASEVSNVLNKGHPKVCEKLKALMVEWTDEFKNDPQLSLISAMIKNLKEQGVTFPAIGSQAAEQAKASPALVAKDPGTVANKKEEEDLAKAIELSLKEQRQQSTTLSTLYPSTSSLLTNHQHEGRKVRAIYDFEAAEDNELTFKAGEIITVLDDSDPNWWKGETHQGIGLFPSNFVTADLTAEPEMIKTEKKTVQFSDDVQVETIEPEPEPAFIDEDKMDQLLQMLQSTDPSDDQPDLPELLHLEAMCHQMGPLIDEKLEDIDRKHSELSELNVKVMEALSLYTKLMNEDPMYSMYAKLQNQPYYMQSSGVSGSQVYAGPPPSGAYLVAGNAQMSHLQSYSLPPEQLSSLSQAVVPPSANPALPSQQTQAAYPNTMVSSVQGNTYPSQAPVYSPPPAATAAAATADVTLYQNAGPNMPQVPNYNLTSSTLPQPGGSQQPPQPQQPYSQKALL
B2: KH domain-containing, RNA-binding, signal transduction-associated protein 2 (Homo sapiens), Q5VWX1 (parent)
chain: MEEEKYLPELMAEKDSLDPSFVHASRLLAEEIEKFQGSDGKKEDEEKKYLDVISNKNIKLSERVLIPVKQYPKFNFVGKLLGPRGNSLKRLQEETGAKMSILGKGSMRDKAKEEELRKSGEAKYAHLSDELHVLIEVFAPPGEAYSRMSHALEEIKKFLVPDYNDEIRQEQLRELSYLNGSEDSGRGRGIRGRGIRIAPTAPSRGRGGAIPPPPPPGRGVLTPRGSTVTRGALPVPPVARGVPTPRARGAPTVPGYRAPPPPAHEAYEEYGYDDGYGGEYDDQTYETYDNSYATQTQSVPEYYDYGHGVSEDAYDSYAPEEWATTRSSLKAPPQRSARGGYREHPYGRY
partner: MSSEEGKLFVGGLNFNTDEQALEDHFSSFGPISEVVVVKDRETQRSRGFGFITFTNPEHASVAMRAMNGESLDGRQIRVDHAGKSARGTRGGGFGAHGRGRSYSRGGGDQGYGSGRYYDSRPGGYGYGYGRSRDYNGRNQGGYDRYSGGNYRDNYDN
B3: EF-hand domain-containing protein 1 (Homo sapiens), Q5JVL4 (parent)
chain: MVSNPVHGLPFLPGTSFKDSTKTAFHRSQTLSYRNGYAIVRRPTVGIGGDRLQFNQLSQAELDELASKAPVLTYGQPKQAPPADFIPAHVAFDKKVLKFDAYFQEDVPMSTEEQYRIRQVNIYYYLEDDSMSVIEPVVENSGILQGKLIKRQRLAKNDRGDHYHWKDLNRGINITIYGKTFRVVDCDQFTQVFLESQGIELNPPEKMALDPYTELRKQPLRKYVTPSDFDQLKQFLTFDKQVLRFYAIWDDTDSMYGECRTYIIHYYLMDDTVEIREVHERNDGRDPFPLLMNRQRVPKVLVENAKNFPQCVLEISDQEVLEWYTAKDFIVGKSLTILGRTFFIYDCDPFTRRYYKEKFGITDLPRIDVSKREPPPVKQELPPYNGFGLVEDSAQNCFALIPKAPKKDVIKMLVNDNKVLRYLAVLESPIPEDKDRRFVFSYFLATDMISIFEPPVRNSGIIGGKYLGRTKVVKPYSTVDNPVYYGPSDFFIGAVIEVFGHRFIILDTDEYVLKYMESNAAQYSPEALASIQNHVRKREAPAPEAESKQTEKDPGVQELEALIDTIQKQLKDHSCKDNIREAFQIYDKEASGYVDRDMFFKICESLNVPVDDSLVKELIRMCSHGEGKINYYNFVRAFSN
partner: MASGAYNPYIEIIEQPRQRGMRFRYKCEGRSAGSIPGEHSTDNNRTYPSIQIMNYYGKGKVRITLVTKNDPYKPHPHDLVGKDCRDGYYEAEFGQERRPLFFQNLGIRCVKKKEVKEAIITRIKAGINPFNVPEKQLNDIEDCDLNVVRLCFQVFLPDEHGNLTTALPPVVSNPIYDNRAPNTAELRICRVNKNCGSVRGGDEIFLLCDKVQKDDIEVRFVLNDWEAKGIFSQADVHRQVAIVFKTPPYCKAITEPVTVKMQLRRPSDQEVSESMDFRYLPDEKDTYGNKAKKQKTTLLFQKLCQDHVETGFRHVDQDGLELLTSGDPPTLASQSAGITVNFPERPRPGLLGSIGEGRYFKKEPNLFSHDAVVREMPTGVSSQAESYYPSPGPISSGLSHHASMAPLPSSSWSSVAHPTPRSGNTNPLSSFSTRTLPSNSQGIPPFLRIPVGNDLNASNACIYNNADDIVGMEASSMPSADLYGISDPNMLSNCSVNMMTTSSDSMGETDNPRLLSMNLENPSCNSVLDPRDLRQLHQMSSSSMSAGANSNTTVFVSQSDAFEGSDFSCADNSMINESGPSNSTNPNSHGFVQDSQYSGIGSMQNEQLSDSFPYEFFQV
B4: Tuftelin-interacting protein 11 (Homo sapiens), Q9UBB9 (parent)
chain: MSLSHLYRDGEGRIDDDDDERENFEITDWDLQNEFNPNRQRHWQTKEEATYGVWAERDSDDERPSFGGKRARDYSAPVNFISAGLKKGAAEEAELEDSDDEEKPVKQDDFPKDFGPRKLKTGGNFKPSQKGFAGGTKSFMDFGSWERHTKGIGQKLLQKMGYVPGRGLGKNAQGIINPIEAKQRKGKGAVGAYGSERTTQSMQDFPVVDSEEEAEEEFQKELSQWRKDPSGSKKKPKYSYKTVEELKAKGRISKKLTAPQKELSQVKVIDMTGREQKVYYSYSQISHKHNVPDDGLPLQSQQLPQSGKEAKAPGFALPELEHNLQLLIDLTEQEIIQNDRQLQYERDMVVNLFHELEKMTEVLDHEERVISNLSKVLEMVEECERRMQPDCSNPLTLDECARIFETLQDKYYEEYRMSDRVDLAVAIVYPLMKEYFKEWDPLKDCTYGTEIISKWKSLLENDQLLSHGGQDLSADAFHRLIWEVWMPFVRNIVTQWQPRNCDPMVDFLDSWVHIIPVWILDNILDQLIFPKLQKEVENWNPLTDTVPIHSWIHPWLPLMQARLEPLYSPIRSKLSSALQKWHPSDSSAKLILQPWKDVFTPGSWEAFMVKNIVPKLGMCLGELVINPHQQHMDAFYWVIDWEGMISVSSLVGLLEKHFFPKWLQVLCSWLSNSPNYEEITKWYLGWKSMFSDQVLAHPSVKDKFNEALDIMNRAVSSNVGAYMQPGARENIAYLTHTERRKDFQYEAMQERREAENMAQRGIGVAASSVPMNFKDLIETKAEEHNIVFMPVIGKRHEGKQLYTFGRIVIYIDRGVVFVQGEKTWVPTSLQSLIDMAK
partner: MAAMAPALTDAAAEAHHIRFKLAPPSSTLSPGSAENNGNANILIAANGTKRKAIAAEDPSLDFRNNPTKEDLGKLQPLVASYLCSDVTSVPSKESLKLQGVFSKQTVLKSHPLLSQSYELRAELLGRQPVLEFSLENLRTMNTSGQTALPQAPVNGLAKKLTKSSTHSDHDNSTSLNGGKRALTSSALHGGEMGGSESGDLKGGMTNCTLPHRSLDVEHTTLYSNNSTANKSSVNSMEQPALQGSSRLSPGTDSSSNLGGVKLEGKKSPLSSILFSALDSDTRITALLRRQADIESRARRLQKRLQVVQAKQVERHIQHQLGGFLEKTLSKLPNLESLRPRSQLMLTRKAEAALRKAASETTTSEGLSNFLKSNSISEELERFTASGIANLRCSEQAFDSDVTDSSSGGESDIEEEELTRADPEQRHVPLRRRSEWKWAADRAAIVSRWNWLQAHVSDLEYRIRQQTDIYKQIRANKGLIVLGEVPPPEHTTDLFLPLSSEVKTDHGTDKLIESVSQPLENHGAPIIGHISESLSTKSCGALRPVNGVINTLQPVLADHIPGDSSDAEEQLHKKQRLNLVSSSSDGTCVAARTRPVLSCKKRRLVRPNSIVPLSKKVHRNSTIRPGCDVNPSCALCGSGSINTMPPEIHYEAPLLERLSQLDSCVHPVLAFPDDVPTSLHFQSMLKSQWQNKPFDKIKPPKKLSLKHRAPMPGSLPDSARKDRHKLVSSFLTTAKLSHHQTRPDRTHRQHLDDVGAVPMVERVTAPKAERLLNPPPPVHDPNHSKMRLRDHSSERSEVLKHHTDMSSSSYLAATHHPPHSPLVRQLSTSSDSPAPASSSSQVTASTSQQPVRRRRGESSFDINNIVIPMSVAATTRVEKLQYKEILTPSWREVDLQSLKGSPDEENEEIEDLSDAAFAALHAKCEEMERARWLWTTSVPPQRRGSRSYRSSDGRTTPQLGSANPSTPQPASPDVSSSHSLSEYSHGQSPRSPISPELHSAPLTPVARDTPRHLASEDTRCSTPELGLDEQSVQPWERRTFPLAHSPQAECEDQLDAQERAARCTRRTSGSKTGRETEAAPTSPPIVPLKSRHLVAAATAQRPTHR
B5: Cyclic AMP-responsive element-binding protein 3-like protein 1 (Homo sapiens), Q96BA8 (parent)
chain: MDAVLEPFPADRLFPGSSFLDLGDLNESDFLNNAHFPEHLDHFTENMEDFSNDLFSSFFDDPVLDEKSPLLDMELDSPTPGIQAEHSYSLSGDSAPQSPLVPIKMEDTTQDAEHGAWALGHKLCSIMVKQEQSPELPVDPLAAPSAMAAAAAMATTPLLGLSPLSRLPIPHQAPGEMTQLPVIKAEPLEVNQFLKVTPEDLVQMPPTPPSSHGSDSDGSQSPRSLPPSSPVRPMARSSTAISTSPLLTAPHKLQGTSGPLLLTEEEKRTLIAEGYPIPTKLPLTKAEEKALKRVRRKIKNKISAQESRRKKKEYVECLEKKVETFTSENNELWKKVETLENANRTLLQQLQKLQTLVTNKISRPYKMAATQTGTCLMVAALCFVLVLGSLVPCLPEFSSGSQTVKEDPLAADGVYTASQMPSRSLLFYDDGAGLWEDGRSTLLPMEPPDGWEINPGGPAEQRPRDHLQHDHLDSTHETTKYLSEAWPKDGGNGTSPDFSHSKEWFHDRDLGPNTTIKLS
partner: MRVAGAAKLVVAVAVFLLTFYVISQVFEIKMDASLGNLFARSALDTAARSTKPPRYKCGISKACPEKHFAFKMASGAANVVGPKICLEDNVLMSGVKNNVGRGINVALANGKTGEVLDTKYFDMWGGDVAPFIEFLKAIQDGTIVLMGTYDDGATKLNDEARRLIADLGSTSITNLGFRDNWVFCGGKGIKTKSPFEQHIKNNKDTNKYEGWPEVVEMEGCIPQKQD
B6: Four and a half LIM domains protein 2 (Homo sapiens), Q14192 (parent)
chain: MTERFDCHHCNESLFGKKYILREESPYCVVCFETLFANTCEECGKPIGCDCKDLSYKDRHWHEACFHCSQCRNSLVDKPFAAKEDQLLCTDCYSNEYSSKCQECKKTIMPGTRKMEYKGSSWHETCFICHRCQQPIGTKSFIPKDNQNFCVPCYEKQHAMQCVQCKKPITTGGVTYREQPWHKECFVCTACRKQLSGQRFTARDDFAYCLNCFCDLYAKKCAGCTNPISGLGGTKYISFEERQWHNDCFNCKKCSLSLVGRGFLTERDDILCPDCGKDI
partner: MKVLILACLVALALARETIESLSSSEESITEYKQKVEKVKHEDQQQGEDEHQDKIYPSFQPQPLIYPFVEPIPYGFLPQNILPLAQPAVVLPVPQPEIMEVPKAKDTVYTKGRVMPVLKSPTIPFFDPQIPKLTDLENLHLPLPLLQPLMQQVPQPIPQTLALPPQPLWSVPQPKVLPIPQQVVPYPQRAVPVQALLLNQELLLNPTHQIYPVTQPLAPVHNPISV

Variants of B1 are the subject of the first assay. The note with it: with hgs_human HGS.
Regarding A367T, the “effect of a mutation on the interaction” value is reported as “with no effect”.

Variants of B2 are the subject of the next assay. To be noted: with rbm3_human RBM3, P98179.
P333L: the “effect of a mutation on the interaction” value is recorded as “with no effect”.

Variants of B3 are the subject of the next assay. The note with it: with rel_human REL.
Regarding Y102C, the “effect of a mutation on the interaction” value was “with no effect”.

In the case of R159W, the “effect of a mutation on the interaction” value was “with no effect”.

Turning to F229L, the “effect of a mutation on the interaction” value was “with no effect”.

Variants of B4 are the subject of the next assay. To be noted: with kanl1_human KANSL1, Q7Z3B3.
Take S688L: the “effect of a mutation on the interaction” value is “with no effect”.

With R8Q, the “effect of a mutation on the interaction” value is on record as “with no effect”.

In the next assay the parent is B5. To be noted: with fam3c_human FAM3C.
With I516S, the “effect of a mutation on the interaction” value is on record as “with no effect”.

Regarding A152T, the “effect of a mutation on the interaction” value is given as “with no effect”.

In the next assay the parent is B6. To be noted: with casb_human CSN2, P05814.
Turning to N95K, the “effect of a mutation on the interaction” value is reported as “with no effect”.

For the variant A37S, the “effect of a mutation on the interaction” value is reported as “with no effect”.

The values above are taken from IntAct's records for PubMed 31515488.
